From publication PMC2945410

Experiments:
[1] = test system: O=[N+]([O-])c1ccc(OP(=O)(O)Oc2ccc([N+](=O)[O-])cc2)cc1; experiment: purified protein; format: biochemical, Shigella flexneri; details: standard assay: 50 mM HEPES pH 7.5, 2 mM MnCl2
[2] = test system: O=[N+]([O-])c1ccc(OP(=O)(O)Oc2ccc([N+](=O)[O-])cc2)cc1; experiment: purified protein; format: biochemical, Thiobacillus denitrificans; details: standard assay: 50 mM HEPES pH 7.5, 2 mM MnCl2

Row | Substance | Km [1] [mM] | Vmax [1] [µmol/min/mg] | kcat [1] [s⁻¹] | kcat/Km [1] [M⁻¹ s⁻¹] | Km [2] [mM] | Vmax [2] [µmol/min/mg] | kcat [2] [s⁻¹] | kcat/Km [2] [M⁻¹ s⁻¹]
1 | SFV_3559 EAL domain (YhjK) (Shigella flexneri) | 14.1 ± 4.2 | 2.1 | 8 | 600 | – | – | – | –
2 | TBD1265 EAL domain (Thiobacillus denitrificans ATCC 25259) | – | – | – | – | 20.0 ± 1.3 | 0.1 | 0.06 | 3
